“Also recorded” adds a separate entry of the source.
What was measured:
hfRPE = assay: quantitative real-time PCR of gene expression in IFNγ-treated hfRPE; format: cell-based, human; conditions: for Threshold Cycle (Ct) CFTR / Threshold Cycle (Ct) IFNGR1 / Threshold Cycle (Ct) IFNGR2 / Threshold Cycle (Ct) IRF-1 / Threshold Cycle (Ct) IRF-2 / Threshold Cycle (Ct) PIAS1 / Threshold Cycle (Ct) SOCS3 / Threshold Cycle (Ct) STAT1 / Threshold Cycle (Ct) NOS2A / Threshold Cycle (Ct) IRF-8: IFNγ 25 ng/ml
Protocol: qRT-PCR was performed as previously described in Li, R. et al., 2007, Invest Ophthalmol Vis Sci, 48, 5722-5732—incorporated by reference in its entirety herein. Confluent monolayers of hfRPE cultured in 24-well plates were treated with IFNγ (25 ng/ml) in SFM and harvested at 0 minutes, 30 minutes, 2 hours, 6 hours, 15 hours and 24 hours, in triplicate for each time point. 1 μg total mRNA isolated from the harvested cells (RNeasy Kit, Qiagen) was reverse-transcribed (SuperScript® III First-Strand Synthesis System for RT-PCR, Invitrogen). Real-time PCR (TagMan®, Applied Biosystems) was used to quantify expression of the interferon regulatory factors IRF-1, IRF-2, and IRF-8; signal transducer and activator of transcription 1 (STAT1); suppressor of cytokine signaling 3 (SOCS3); protein inhibitor of activated STAT1 (PIAS1); inducible nitric oxide synthase (NOS2A); IFNγ receptor subunit R1 (IFNGR1); IFNα receptor subunit R1 (IFNAR1); IFNγ receptor subunit R2 (IFNGR2); cystic fibrosis transmembrane conductance regulator (CFTR); and Glyceraldehyde 3-phosphate dehydrogenase (GAPDH). The mRNA concentration of each gene was normalized against GAPDH. qRT-PCR was performed on the ABI Sequence Detection System 7900 (Applied Biosystems).

hfRPE monolayers = assay: electrophysiology of hfRPE monolayers (TEP, RT, VA, VB, RA/RB); format: cell-based, human
Text: Equivalent circuit analysis and electrophysiological methods have been previously described in Quinn, R. H., et al., Invest Ophthalmol Vis Sci, 1992, 33, 3513-3527; Joseph D. P., et al., J Physiol, 1991, 435, 439-463; and Maminishkis, A., et al., 2006, Ophthalmol Vis Sci, 47, 3612-3624each incorporated herein by reference in its entirety.
Briefly, confluent monolayers of cultured hfRPE were mounted on a nylon mesh support and clamped into a modified Üssing chamber that allowed the rapid exchange of Ringer's solution (≈10 chamber volumes per minute) and the measurement of fast electrical changes in seconds. The electrical connections to the apical and basal chambers were made with Ringer-agar bridges in series with calomel electrodes. Intracellular potentials were recorded with conventional microelectrodes, back-filled with 150 mM KCl, with resistances of 80 to 200 Ma The apical and basolateral membrane potentials (VA and VB) are calculated as the voltage differences between the intracellular microelectrode and the apical and basal bath electrodes, respectively. The resistances of the apical and basolateral membranes were designated RA and RB, respectively, and the transepithelial potential (TEP=VB-VA) is the voltage difference between the apical and basal bath electrodes. Epithelial resistance parameters were obtained by passing 4-μA bipolar current pulses (i) using Ag—AgCl electrodes, one located in the apical chamber and the other located in the basal chamber. The total transepithelial resistance (Rt) is calculated from the current-induced changes in TEP (Rt=ΔTEP/i). The apparent membrane resistance ratio (RA/RB) is calculated from the ratio of change in VA to change in VB (RA/RB=ΔVA/ΔVB).
The control Ringer's solution for measurements of TEP and Rt in culture hfRPE contained 116 mM NaCl, 5 mM KCl, 26.2 mM NaHCO3, 1 mM NaH2PO4, 1 mM Mg Cl2, 1.8 mM CaCl2, 10 mM glucose, and 2 mM Taurine. The osmolarity of control Ringer's solution was 295 mOsm. The solutions were maintained at 35° C. and a pH of 7.4, and were bubbled with 10% O2, 5% CO2 and 85% N2. 8-Bromo-cAMP (or Dibutyryl cAMP), 8-Br-cGMP, and forskolin were obtained from Sigma-Aldrich.

[1] = IFNγ 100 ng/ml apical and basal, FIG. 17A
[2] = IFNγ 500 ng/mL apical and basal, FIG. 22

B1: IFNγ: pleiotropic cytokine produced by T- and NK-cells; obtained from Peprotech (protein, UniProt P01579 24-161, looked up)
Interferon gamma: QDPYVKEAENLKKYFNAGHSDVADNGTLFLGILKNWKEESDRKIMQSQIVSFYFKLFKNFKDDQSIQKSVETIKEDMNVKFFNSNKKKRDDFEKLTNYSVTDLNVQRKAIHELIQVMAELSPAAKTGKRKRSQMLFRG
IRF-2 mRNA fold change (hfRPE; 25 ng/ml IFNγ, hfRPE): 3 fold | up-regulation of IRF-1 transcription (hfRPE; 25 ng/ml IFNγ, hfRPE): > 400 fold | up-regulation of STAT1 transcription (hfRPE; 25 ng/ml IFNγ, hfRPE): > 30 fold | Threshold Cycle (Ct) CFTR (hfRPE; 0 hr): 38.0 | Threshold Cycle (Ct) IFNGR1 (hfRPE; 0 hr): 26.4 | Threshold Cycle (Ct) IFNGR2 (hfRPE; 0 hr): 26.0 | Threshold Cycle (Ct) IRF-1 (hfRPE; 0 hr): 31.1 | Threshold Cycle (Ct) IRF-2 (hfRPE; 0 hr): 27.6 | Threshold Cycle (Ct) PIAS1 (hfRPE; 0 hr): 27.0 | Threshold Cycle (Ct) SOCS3 (hfRPE; 0 hr): 26.9 | Threshold Cycle (Ct) STAT1 (hfRPE; 0 hr): 26.2 | Threshold Cycle (Ct) CFTR (hfRPE; 0.5 hr): 36.9 | Threshold Cycle (Ct) IFNGR1 (hfRPE; 0.5 hr): 26.4 | Threshold Cycle (Ct) IFNGR2 (hfRPE; 0.5 hr): 26.0 | Threshold Cycle (Ct) IRF-1 (hfRPE; 0.5 hr): 27.4 | Threshold Cycle (Ct) IRF-2 (hfRPE; 0.5 hr): 27.6 | Threshold Cycle (Ct) NOS2A (hfRPE; 0.5 hr): 39.1 | Threshold Cycle (Ct) PIAS1 (hfRPE; 0.5 hr): 26.9 | Threshold Cycle (Ct) SOCS3 (hfRPE; 0.5 hr): 25.4 | Threshold Cycle (Ct) STAT1 (hfRPE; 0.5 hr): 25.8 | Threshold Cycle (Ct) CFTR (hfRPE; 2 hr): 37.3 | Threshold Cycle (Ct) IFNGR1 (hfRPE; 2 hr): 26.4 | Threshold Cycle (Ct) IFNGR2 (hfRPE; 2 hr): 25.1 | Threshold Cycle (Ct) IRF-1 (hfRPE; 2 hr): 22.2 | Threshold Cycle (Ct) IRF-2 (hfRPE; 2 hr): 26.0 | Threshold Cycle (Ct) IRF-8 (hfRPE; 2 hr): 30.9 | Threshold Cycle (Ct) NOS2A (hfRPE; 2 hr): 35.9 | Threshold Cycle (Ct) PIAS1 (hfRPE; 2 hr): 27.2 | Threshold Cycle (Ct) SOCS3 (hfRPE; 2 hr): 24.6 | Threshold Cycle (Ct) STAT1 (hfRPE; 2 hr): 22.1 | Threshold Cycle (Ct) CFTR (hfRPE; 6 hr): 38.5 | Threshold Cycle (Ct) IFNGR1 (hfRPE; 6 hr): 26.3 | Threshold Cycle (Ct) IFNGR2 (hfRPE; 6 hr): 24.7 | Threshold Cycle (Ct) IRF-1 (hfRPE; 6 hr): 22.3 | Threshold Cycle (Ct) IRF-2 (hfRPE; 6 hr): 25.6 | Threshold Cycle (Ct) IRF-8 (hfRPE; 6 hr): 31.1 | Threshold Cycle (Ct) NOS2A (hfRPE; 6 hr): 31.6 | Threshold Cycle (Ct) PIAS1 (hfRPE; 6 hr): 27.1 | Threshold Cycle (Ct) SOCS3 (hfRPE; 6 hr): 24.0 | Threshold Cycle (Ct) STAT1 (hfRPE; 6 hr): 21.0 | Threshold Cycle (Ct) IFNGR1 (hfRPE; 15 hr): 26.5 | Threshold Cycle (Ct) IFNGR2 (hfRPE; 15 hr): 25.1 | Threshold Cycle (Ct) IRF-1 (hfRPE; 15 hr): 22.3 | Threshold Cycle (Ct) IRF-2 (hfRPE; 15 hr): 26.0 | Threshold Cycle (Ct) IRF-8 (hfRPE; 15 hr): 32.0 | Threshold Cycle (Ct) NOS2A (hfRPE; 15 hr): 32.7 | Threshold Cycle (Ct) PIAS1 (hfRPE; 15 hr): 26.8 | Threshold Cycle (Ct) SOCS3 (hfRPE; 15 hr): 24.8 | Threshold Cycle (Ct) STAT1 (hfRPE; 15 hr): 21.3 | Threshold Cycle (Ct) CFTR (hfRPE; 24 hr): 37.9 | Threshold Cycle (Ct) IFNGR1 (hfRPE; 24 hr): 26.3 | Threshold Cycle (Ct) IFNGR2 (hfRPE; 24 hr): 25.2 | Threshold Cycle (Ct) IRF-1 (hfRPE; 24 hr): 22.2 | Threshold Cycle (Ct) IRF-2 (hfRPE; 24 hr): 26.1 | Threshold Cycle (Ct) IRF-8 (hfRPE; 24 hr): 31.9 | Threshold Cycle (Ct) NOS2A (hfRPE; 24 hr): 33.5 | Threshold Cycle (Ct) PIAS1 (hfRPE; 24 hr): 26.7 | Threshold Cycle (Ct) SOCS3 (hfRPE; 24 hr): 24.9 | Threshold Cycle (Ct) STAT1 (hfRPE; 24 hr): 21.2 | SOCS3 mRNA levels (hfRPE; IFNγ-treated hfRPE): increased | effect on CFTR mRNA expression (hfRPE; IFNγ-treated hfRPE): No effect; also recorded: small decrease | effect on IFNGR1 expression (hfRPE; IFNγ-treated hfRPE): No effect | effect on PIAS1 expression (hfRPE; IFNγ-treated hfRPE): No effect; also recorded: does not affect | increase of SOCS3 mRNA (hfRPE; IFNγ-treated hfRPE): 7 fold | IRF-8 mRNA detectability (hfRPE; after 2 hours of IFNγ, constitutive level under detection): became detectable | increase in IFNGR2 expression (hfRPE; after 6 hours of IFNγ): ≈ 2 fold | NOS2A expression (hfRPE; after 6 hours of IFNγ, constitutive levels undetectable): significantly up-regulated | RT decrease (hfRPE monolayers; [1]): 15 Ω·cm^2 | TEP increase (hfRPE monolayers; [1]): 0.9 mV | depolarization of both VA and VB (hfRPE monolayers; [2]): approximately 2.5 mV | increase in RA/RB (hfRPE monolayers; [2]): 0.2 | increase in TEP (hfRPE monolayers; [2]): 0.3 mV | ΔRT (decrease) (hfRPE monolayers; IFNγ, mean of experiments): 17±2 Ω·cm^2 | ΔTEP (increase) (hfRPE monolayers; IFNγ, mean of experiments): 0.5±0.1 mV

From patent publication US9486502B2, “Methods of administering interferon gamma to absorb fluid from the subretinal space” (The United States of America, as represented by the …, priority 2008, dated 2016)
